Test results taken from PMC7414962, “Screening and Evaluation of New Hydroxymethylfurfural Oxidases for Furandicarboxylic Acid Production” (Applied and Environmental Microbiology, 2020).

Columns and labels:
PseniHMFO^His = target: T1, PseniHMFO^His (Pseudomonas nitroreducens, UniProt A0A6G6IPZ6); test: UV-visible flavin spectrum; FAD release on heat denaturation; format: binding; details: 50 mM Tris-HCl, pH 7.0, 25°C; co-purified prosthetic group
T1 construct: gene G5B91_01695
T1 sequence (A0A6G6IPZ6 1-531): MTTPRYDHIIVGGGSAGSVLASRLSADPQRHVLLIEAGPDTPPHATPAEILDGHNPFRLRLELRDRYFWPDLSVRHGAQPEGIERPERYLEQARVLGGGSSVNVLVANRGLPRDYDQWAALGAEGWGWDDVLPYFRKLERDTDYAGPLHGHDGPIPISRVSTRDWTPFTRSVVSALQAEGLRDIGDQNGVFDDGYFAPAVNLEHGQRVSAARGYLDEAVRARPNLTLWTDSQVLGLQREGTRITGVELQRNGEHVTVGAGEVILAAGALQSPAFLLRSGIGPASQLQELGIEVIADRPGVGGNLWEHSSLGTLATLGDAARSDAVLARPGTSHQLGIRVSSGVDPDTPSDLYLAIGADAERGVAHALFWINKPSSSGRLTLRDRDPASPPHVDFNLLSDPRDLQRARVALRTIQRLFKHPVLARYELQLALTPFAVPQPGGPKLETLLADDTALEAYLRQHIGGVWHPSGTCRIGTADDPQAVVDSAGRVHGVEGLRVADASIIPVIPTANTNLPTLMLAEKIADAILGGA

MetspHMFO^His = target: T2, MetspHMFO^His (Methylovorus sp. MP688, UniProt E4QP00); test: as above; format: binding; details: 50 mM Tris-HCl, pH 7.0, 25°C; co-purified prosthetic group
T2 construct: gene MPQ_0130
T2 sequence (E4QP00 1-531): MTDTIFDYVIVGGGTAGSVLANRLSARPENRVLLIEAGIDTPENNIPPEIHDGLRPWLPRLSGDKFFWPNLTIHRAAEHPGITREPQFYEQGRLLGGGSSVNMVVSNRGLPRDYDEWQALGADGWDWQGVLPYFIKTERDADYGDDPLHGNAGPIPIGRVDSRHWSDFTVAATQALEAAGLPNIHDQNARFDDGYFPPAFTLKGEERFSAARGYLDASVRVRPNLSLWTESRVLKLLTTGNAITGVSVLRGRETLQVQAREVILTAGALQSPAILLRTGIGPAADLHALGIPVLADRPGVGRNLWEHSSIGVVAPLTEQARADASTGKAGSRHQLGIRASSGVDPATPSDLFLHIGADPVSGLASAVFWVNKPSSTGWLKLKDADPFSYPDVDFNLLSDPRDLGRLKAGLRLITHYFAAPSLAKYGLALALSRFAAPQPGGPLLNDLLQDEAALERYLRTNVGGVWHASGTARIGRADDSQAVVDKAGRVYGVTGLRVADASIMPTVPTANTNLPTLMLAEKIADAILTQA

MetspHMFO = target: T3, MetspHMFO (Methylovorus sp. MP688, UniProt E4QP00); test: as above; format: binding; details: 50 mM Tris-HCl, pH 7.0, 25°C; co-purified prosthetic group
T3 construct: gene MPQ_0130
T3 sequence (E4QP00 1-531): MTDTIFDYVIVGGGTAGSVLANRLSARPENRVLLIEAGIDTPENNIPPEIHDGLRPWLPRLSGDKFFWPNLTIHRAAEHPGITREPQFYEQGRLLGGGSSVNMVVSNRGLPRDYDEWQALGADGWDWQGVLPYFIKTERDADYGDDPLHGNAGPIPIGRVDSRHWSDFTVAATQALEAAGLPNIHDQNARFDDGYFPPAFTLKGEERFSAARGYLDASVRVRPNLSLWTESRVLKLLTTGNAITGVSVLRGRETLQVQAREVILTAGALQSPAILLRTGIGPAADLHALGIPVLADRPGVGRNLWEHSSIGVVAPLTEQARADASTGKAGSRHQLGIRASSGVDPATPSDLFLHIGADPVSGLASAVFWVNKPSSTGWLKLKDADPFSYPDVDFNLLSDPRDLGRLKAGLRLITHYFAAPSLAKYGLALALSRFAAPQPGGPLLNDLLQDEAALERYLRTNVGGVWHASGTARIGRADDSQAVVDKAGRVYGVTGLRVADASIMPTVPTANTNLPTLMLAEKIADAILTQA

PsespHMFO = target: T4, PsespHMFO (Pseudomonas sp. 11/12A, UniProt Z9N8I9PR93); test: as above; format: binding; details: 50 mM Tris-HCl, pH 7.0, 25°C; co-purified prosthetic group
T4 sequence (Z9N8I9PR93 1-530): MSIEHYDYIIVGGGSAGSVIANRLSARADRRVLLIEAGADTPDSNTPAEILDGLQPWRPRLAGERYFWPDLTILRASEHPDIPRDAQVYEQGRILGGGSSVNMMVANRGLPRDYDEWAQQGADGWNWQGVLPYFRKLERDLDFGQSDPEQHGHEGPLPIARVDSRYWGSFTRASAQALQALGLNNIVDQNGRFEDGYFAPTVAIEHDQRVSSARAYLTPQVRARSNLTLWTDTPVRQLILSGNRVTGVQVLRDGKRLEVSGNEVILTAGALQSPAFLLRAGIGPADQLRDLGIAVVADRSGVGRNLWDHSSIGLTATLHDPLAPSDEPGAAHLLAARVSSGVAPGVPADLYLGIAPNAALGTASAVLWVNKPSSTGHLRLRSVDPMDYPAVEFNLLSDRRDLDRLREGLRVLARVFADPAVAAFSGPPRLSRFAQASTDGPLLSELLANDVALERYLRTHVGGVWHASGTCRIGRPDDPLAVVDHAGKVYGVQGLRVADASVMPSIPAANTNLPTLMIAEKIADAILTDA

[1] = substrate: O=Cc1ccc(C=O)o1; test: HRP/AmplexRed-coupled H2O2 assay; format: biochemical, Methylovorus sp. MP688; details: 50 mM Tris-HCl, pH 7.0, 25°C, O2
From the text: HRP/AmplexRed-coupled H2O2 assay on MetspHMFO

purified protein = substrate: O=Cc1ccc(CO)o1; test: purified protein; details: 50 mM Tris-HCl, pH 7.0, 25°C, O2
[2] = substrate: COc1cc(CO)ccc1O; test: steady-state, direct spectrophotometry of vanillin; format: biochemical, Methylovorus sp. MP688; details: 50 mM Tris-HCl, pH 7.0, 25°C, O2
From the text: steady-state, direct spectrophotometry of vanillin on MetspHMFO

[3] = substrate: COc1cc(CO)ccc1O; test: steady-state, direct spectrophotometry of vanillin; format: biochemical, Methylovorus sp. MP688; details: 50 mM Tris-HCl, pH 7.0, 25°C, O2; remark: listed apart in the source
From the text: steady-state, direct spectrophotometry of vanillin on MetspHMFO^His

[4] = substrate: O=Cc1ccc(C=O)o1; test: HRP/AmplexRed-coupled H2O2 assay; format: biochemical, Methylovorus sp. MP688; details: 50 mM Tris-HCl, pH 7.0, 25°C, O2; remark: listed apart in the source
From the text: HRP/AmplexRed-coupled H2O2 assay on MetspHMFO^His

[5] = substrate: O=Cc1ccc(CO)o1; test: HRP/AmplexRed-coupled H2O2 assay; format: biochemical, Pseudomonas nitroreducens; details: 50 mM Tris-HCl, pH 7.0, 25°C, O2
From the text: (§1) HRP/AmplexRed-coupled H2O2 assay on PseniHMFO^His

[6] = substrate: O=Cc1ccc(C=O)o1; test: HRP/AmplexRed-coupled H2O2 assay; format: biochemical, Pseudomonas nitroreducens; details: 50 mM Tris-HCl, pH 7.0, 25°C, O2
From the text: as §1

[7] = substrate: COc1cc(CO)ccc1O; test: steady-state, direct spectrophotometry of vanillin; format: biochemical, Pseudomonas nitroreducens; details: 50 mM Tris-HCl, pH 10, 25°C, O2
From the text: steady-state, direct spectrophotometry of vanillin on PseniHMFO^His

For `Cc1cc2nc3c(=O)[nH]c(=O)nc-3n(C[C@H](O)[C@H](O)[C@H](O)COP(=O)(O)OP(=O)(O)OC[C@H]3O[C@@H](n4cnc5c(N)ncnc54)[C@H](O)[C@@H]3O)c2cc1C` [FAD], which “UV-visible flavin spectrum; FAD release on heat denaturation” value (“UV-visible flavin spectrum; FAD release” for short) (PseniHMFO^His) is on record?
The value was “The enzymes showed UV-visible spectra characteristic of FAD-containing proteins”.

And the “UV-visible flavin spectrum; FAD release” value (MetspHMFO^His)?
Its value is “The enzymes showed UV-visible spectra characteristic of FAD-containing proteins”.

What about the “UV-visible flavin spectrum; FAD release” value (MetspHMFO) of the same molecule?
The value was “The enzymes showed UV-visible spectra characteristic of FAD-containing proteins”.

And the “UV-visible flavin spectrum; FAD release” value (PsespHMFO)?
Its value is “The enzymes showed UV-visible spectra characteristic of FAD-containing proteins”.

B1: MetspHMFO (Methylovorus sp. MP688) (protein)
chain: MTDTIFDYVIVGGGTAGSVLANRLSARPENRVLLIEAGIDTPENNIPPEIHDGLRPWLPRLSGDKFFWPNLTIHRAAEHPGITREPQFYEQGRLLGGGSSVNMVVSNRGLPRDYDEWQALGADGWDWQGVLPYFIKTERDADYGDDPLHGNAGPIPIGRVDSRHWSDFTVAATQALEAAGLPNIHDQNARFDDGYFPPAFTLKGEERFSAARGYLDASVRVRPNLSLWTESRVLKLLTTGNAITGVSVLRGRETLQVQAREVILTAGALQSPAILLRTGIGPAADLHALGIPVLADRPGVGRNLWEHSSIGVVAPLTEQARADASTGKAGSRHQLGIRASSGVDPATPSDLFLHIGADPVSGLASAVFWVNKPSSTGWLKLKDADPFSYPDVDFNLLSDPRDLGRLKAGLRLITHYFAAPSLAKYGLALALSRFAAPQPGGPLLNDLLQDEAALERYLRTNVGGVWHASGTARIGRADDSQAVVDKAGRVYGVTGLRVADASIMPTVPTANTNLPTLMLAEKIADAILTQA
What does the source list for B1?
Km [1]: 6.8 ± 0.6 mM; kcat [1]: 0.102 ± 0.0033 s⁻¹; Km (purified protein): 9.1 ± 0.7 mM; kcat (purified protein): 1.38 ± 0.0267 s⁻¹; Km [2]: 0.5 ± 0.1 mM; kcat [2]: 19.5 ± 1.33 s⁻¹

B2: MetspHMFO^His (Methylovorus sp. MP688) (protein)
chain: MTDTIFDYVIVGGGTAGSVLANRLSARPENRVLLIEAGIDTPENNIPPEIHDGLRPWLPRLSGDKFFWPNLTIHRAAEHPGITREPQFYEQGRLLGGGSSVNMVVSNRGLPRDYDEWQALGADGWDWQGVLPYFIKTERDADYGDDPLHGNAGPIPIGRVDSRHWSDFTVAATQALEAAGLPNIHDQNARFDDGYFPPAFTLKGEERFSAARGYLDASVRVRPNLSLWTESRVLKLLTTGNAITGVSVLRGRETLQVQAREVILTAGALQSPAILLRTGIGPAADLHALGIPVLADRPGVGRNLWEHSSIGVVAPLTEQARADASTGKAGSRHQLGIRASSGVDPATPSDLFLHIGADPVSGLASAVFWVNKPSSTGWLKLKDADPFSYPDVDFNLLSDPRDLGRLKAGLRLITHYFAAPSLAKYGLALALSRFAAPQPGGPLLNDLLQDEAALERYLRTNVGGVWHASGTARIGRADDSQAVVDKAGRVYGVTGLRVADASIMPTVPTANTNLPTLMLAEKIADAILTQA
With B2 as the molecule, how does the Km [3] read?
The Km was 0.6 ± 0.03 mM.

What about the kcat [3] of the same molecule?
The kcat was 19.83 ± 0.833 s⁻¹.

And the Km (purified protein)?
The Km was 6.8 ± 0.8 mM.

And the kcat (purified protein)?
The kcat was 1.61 ± 0.0633 s⁻¹.

What about the Km [4] of the same molecule?
Its Km is 4.8 ± 1.9 mM.

What about the kcat [4] of the same molecule?
Its kcat is 0.0417 ± 0.005 s⁻¹.

B3: PseniHMFO^His (Pseudomonas nitroreducens) (protein)
chain: MTTPRYDHIIVGGGSAGSVLASRLSADPQRHVLLIEAGPDTPPHATPAEILDGHNPFRLRLELRDRYFWPDLSVRHGAQPEGIERPERYLEQARVLGGGSSVNVLVANRGLPRDYDQWAALGAEGWGWDDVLPYFRKLERDTDYAGPLHGHDGPIPISRVSTRDWTPFTRSVVSALQAEGLRDIGDQNGVFDDGYFAPAVNLEHGQRVSAARGYLDEAVRARPNLTLWTDSQVLGLQREGTRITGVELQRNGEHVTVGAGEVILAAGALQSPAFLLRSGIGPASQLQELGIEVIADRPGVGGNLWEHSSLGTLATLGDAARSDAVLARPGTSHQLGIRVSSGVDPDTPSDLYLAIGADAERGVAHALFWINKPSSSGRLTLRDRDPASPPHVDFNLLSDPRDLQRARVALRTIQRLFKHPVLARYELQLALTPFAVPQPGGPKLETLLADDTALEAYLRQHIGGVWHPSGTCRIGTADDPQAVVDSAGRVHGVEGLRVADASIIPVIPTANTNLPTLMLAEKIADAILGGA
How did the Km [5] turn out when B3 was run?
The Km was 5.1 ± 1.1 mM.

And the kcat [5]?
Its kcat is 0.238 ± 0.015 s⁻¹.

And the Km [6]?
The Km was 4.8 ± 1.9 mM.

And the kcat [6]?
Its kcat is 0.0167 ± 0.0017 s⁻¹.

What about the Km [7] of the same molecule?
The Km was 0.8 ± 0.2 mM.
